Source: US20240182536A1 (MURAL ONCOLOGY, published 2024)
Where a chain is given by its changes, count along the chain named. In names and notes the source's numbering stands.

Columns and labels:
[1] = biological target: T1, IL-18 receptors on HEK-Blue IL-18 reporter cells (UniProt Q13478 19-541; O95256 20-599, limits assumed); test: cell-based or functional assay
T1 sequence (looked up) 1: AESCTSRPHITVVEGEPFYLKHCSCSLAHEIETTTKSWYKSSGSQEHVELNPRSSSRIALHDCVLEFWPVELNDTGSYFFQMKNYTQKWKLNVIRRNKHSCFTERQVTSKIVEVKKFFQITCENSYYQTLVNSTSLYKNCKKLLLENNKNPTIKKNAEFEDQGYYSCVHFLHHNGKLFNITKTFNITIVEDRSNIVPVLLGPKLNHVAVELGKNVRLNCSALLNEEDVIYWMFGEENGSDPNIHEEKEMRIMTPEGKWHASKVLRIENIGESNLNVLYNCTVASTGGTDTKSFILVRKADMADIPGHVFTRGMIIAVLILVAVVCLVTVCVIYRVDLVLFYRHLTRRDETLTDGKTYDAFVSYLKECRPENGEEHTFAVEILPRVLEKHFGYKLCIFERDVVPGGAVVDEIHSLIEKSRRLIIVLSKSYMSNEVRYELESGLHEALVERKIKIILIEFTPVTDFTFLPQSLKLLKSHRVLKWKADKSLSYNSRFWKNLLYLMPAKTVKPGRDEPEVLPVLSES
T1 sequence (looked up) 2: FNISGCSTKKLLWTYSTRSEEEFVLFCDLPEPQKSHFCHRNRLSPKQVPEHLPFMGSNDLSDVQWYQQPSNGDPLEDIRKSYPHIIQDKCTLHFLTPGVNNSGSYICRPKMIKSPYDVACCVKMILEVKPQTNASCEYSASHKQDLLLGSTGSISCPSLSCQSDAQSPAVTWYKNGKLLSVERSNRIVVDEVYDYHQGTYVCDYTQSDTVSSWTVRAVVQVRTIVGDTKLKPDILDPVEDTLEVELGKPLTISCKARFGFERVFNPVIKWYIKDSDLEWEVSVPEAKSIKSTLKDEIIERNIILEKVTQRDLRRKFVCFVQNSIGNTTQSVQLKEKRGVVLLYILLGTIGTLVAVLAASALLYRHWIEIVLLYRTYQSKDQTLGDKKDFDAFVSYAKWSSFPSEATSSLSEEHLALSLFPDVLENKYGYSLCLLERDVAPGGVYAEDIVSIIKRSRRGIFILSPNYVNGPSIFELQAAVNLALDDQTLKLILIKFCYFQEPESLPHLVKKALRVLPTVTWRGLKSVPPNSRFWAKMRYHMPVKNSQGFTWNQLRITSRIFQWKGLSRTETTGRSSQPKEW

[2] = biological target: T2, IL-18 binding protein (IL-18BP) (UniProt O95998 31-194); test: cell-based or functional assay
T2 sequence (looked up): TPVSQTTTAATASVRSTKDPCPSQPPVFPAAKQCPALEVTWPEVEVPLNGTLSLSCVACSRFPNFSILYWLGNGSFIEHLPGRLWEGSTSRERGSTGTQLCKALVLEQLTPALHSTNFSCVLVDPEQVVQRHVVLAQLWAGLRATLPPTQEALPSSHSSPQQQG

B1: IL-18 variant G3Q, E6K, D54S, S55P, T63S, N91S, R104Q (ligand)
chain: YFQKLKSKLSVIRNLNDQVLFIDQGNRPLFEDMTDSDMRDNAPRTIFIISMYKSPQPRGMAVSISVKSEKISTLSSENKIISFKEMNPPDSIKDTKSDIIFFQQSVPGHDNKMQFESSSYEGYFLASEKERDLFKLILKKEDELGDRSIMFTVQNED
- Activity, No BP, DF-100000 [1]: 1.92
- Activity, No BP, DF-500000 [1]: 1.92
- Activity, No BP, DF-2500000 [1]: 1.4
- Activity, +100 nM BP, DF-1000002 [2]: 1.55
- Activity, +100 nM BP, DF-5000003 [2]: 1.15
- Activity, +100 nM BP, DF-25000004 [2]: 0.45
- Ratio (-BP/+BP), DF-1000005 [2]: 1.24
- Ratio (-BP/+BP), DF-5000006 [2]: 1.67
- Ratio (-BP/+BP), DF-25000007 [2]: 3.14

B2: IL-18 variant G3I, E6D, D54A, S55F, N91Y, R104H (ligand)
chain: B1 chain with Q3I, K6D, S54A, P55F, S63T, S91Y, Q104H
- Activity, No BP, DF-100000 [1]: 2.1
- Activity, No BP, DF-500000 [1]: 1.96
- Activity, No BP, DF-2500000 [1]: 1.34
- Activity, +100 nM BP, DF-1000002 [2]: 2.05
- Activity, +100 nM BP, DF-5000003 [2]: 1.45
- Activity, +100 nM BP, DF-25000004 [2]: 0.74
- Ratio (-BP/+BP), DF-1000005 [2]: 1.02
- Ratio (-BP/+BP), DF-5000006 [2]: 1.35
- Ratio (-BP/+BP), DF-25000007 [2]: 1.81

B3: IL-18 variant G3Q, E6N, D54Y, S55P, T63S, N91S, R104H (ligand)
chain: B1 chain with K6N, S54Y, Q104H
- Activity, No BP, DF-100000 [1]: 1.37
- Activity, No BP, DF-500000 [1]: 0.75
- Activity, No BP, DF-2500000 [1]: 0.28
- Activity, +100 nM BP, DF-1000002 [2]: 0.9
- Activity, +100 nM BP, DF-5000003 [2]: 0.42
- Activity, +100 nM BP, DF-25000004 [2]: 0.14
- Ratio (-BP/+BP), DF-1000005 [2]: 1.52
- Ratio (-BP/+BP), DF-5000006 [2]: 1.76
- Ratio (-BP/+BP), DF-25000007 [2]: 1.97

B4: IL-18 variant G3Y, E6N, N91Y, R104S (ligand)
chain: B1 chain with Q3Y, K6N, S54D, P55S, S63T, S91Y, Q104S
- Activity, No BP, DF-100000 [1]: 1.87
- Activity, No BP, DF-500000 [1]: 1.79
- Activity, No BP, DF-2500000 [1]: 1.54
- Activity, +100 nM BP, DF-1000002 [2]: 1.78
- Activity, +100 nM BP, DF-5000003 [2]: 1.2
- Activity, +100 nM BP, DF-25000004 [2]: 0.6
- Ratio (-BP/+BP), DF-1000005 [2]: 1.05
- Ratio (-BP/+BP), DF-5000006 [2]: 1.5
- Ratio (-BP/+BP), DF-25000007 [2]: 2.59

B5: IL-18 variant G3Q, E6G, D54N, S55H, T63V, N91M, R104T (ligand)
chain: B1 chain with K6G, S54N, P55H, S63V, S91M, Q104T
- Activity, No BP, DF-100000 [1]: 1.99
- Activity, No BP, DF-500000 [1]: 1.82
- Activity, No BP, DF-2500000 [1]: 1.01
- Activity, +100 nM BP, DF-1000002 [2]: 1.83
- Activity, +100 nM BP, DF-5000003 [2]: 1.38
- Activity, +100 nM BP, DF-25000004 [2]: 0.7
- Ratio (-BP/+BP), DF-1000005 [2]: 1.09
- Ratio (-BP/+BP), DF-5000006 [2]: 1.32
- Ratio (-BP/+BP), DF-25000007 [2]: 1.44

B6: IL-18 variant G3E, E6G, N91M, R104A (ligand)
chain: B1 chain with Q3E, K6G, S54D, P55S, S63T, S91M, Q104A
- Activity, No BP, DF-100000 [1]: 2.05
- Activity, No BP, DF-500000 [1]: 2
- Activity, No BP, DF-2500000 [1]: 1.54
- Activity, +100 nM BP, DF-1000002 [2]: 1.93
- Activity, +100 nM BP, DF-5000003 [2]: 1.41
- Activity, +100 nM BP, DF-25000004 [2]: 0.53
- Ratio (-BP/+BP), DF-1000005 [2]: 1.06
- Ratio (-BP/+BP), DF-5000006 [2]: 1.41
- Ratio (-BP/+BP), DF-25000007 [2]: 2.92

B7: IL-18 variant G3S, E6G, D54V, S55K, T63S, N91Y, R104T (ligand)
chain: B1 chain with Q3S, K6G, S54V, P55K, S91Y, Q104T
- Activity, No BP, DF-100000 [1]: 1.95
- Activity, No BP, DF-500000 [1]: 1.77
- Activity, No BP, DF-2500000 [1]: 1.26
- Activity, +100 nM BP, DF-1000002 [2]: 1.64
- Activity, +100 nM BP, DF-5000003 [2]: 0.85
- Activity, +100 nM BP, DF-25000004 [2]: 0.32
- Ratio (-BP/+BP), DF-1000005 [2]: 1.19
- Ratio (-BP/+BP), DF-5000006 [2]: 2.08
- Ratio (-BP/+BP), DF-25000007 [2]: 3.88

B8: IL-18 variant G3L, E6Q, T63S, N91L, R104T (ligand)
chain: B1 chain with Q3L, K6Q, S54D, P55S, S91L, Q104T
- Activity, No BP, DF-100000 [1]: 2.12
- Activity, No BP, DF-500000 [1]: 2.01
- Activity, No BP, DF-2500000 [1]: 1.85
- Activity, +100 nM BP, DF-1000002 [2]: 1.81
- Activity, +100 nM BP, DF-5000003 [2]: 1.15
- Activity, +100 nM BP, DF-25000004 [2]: 0.46
- Ratio (-BP/+BP), DF-1000005 [2]: 1.17
- Ratio (-BP/+BP), DF-5000006 [2]: 1.75
- Ratio (-BP/+BP), DF-25000007 [2]: 4

B9: IL-18 variant G3E, E6H, R27S, D54A, S55T, T63S, N91F, R104S (ligand)
chain: B1 chain with Q3E, K6H, R27S, S54A, P55T, S91F, Q104S
- Activity, No BP, DF-100000 [1]: 2.08
- Activity, No BP, DF-500000 [1]: 1.83
- Activity, No BP, DF-2500000 [1]: 1.14
- Activity, +100 nM BP, DF-1000002 [2]: 1.8
- Activity, +100 nM BP, DF-5000003 [2]: 1.11
- Activity, +100 nM BP, DF-25000004 [2]: 0.41
- Ratio (-BP/+BP), DF-1000005 [2]: 1.16
- Ratio (-BP/+BP), DF-5000006 [2]: 1.65
- Ratio (-BP/+BP), DF-25000007 [2]: 2.79
